Columns and labels:
[1] = molecular target: T1, human FcγRIIIa-V176 (human, UniProt P08637 17-208); assay: ELISA: antibody coated at 1 ug/ml, hFcγRIIIA(V176)-his titrated, anti-His-HRP; the concentration is that of the receptor
T1 construct: His-tagged (ELISA); whole receptor on Jurkat-NFAT-luc-FcγRIIIA-V176 cells in the ADCC reporter assay; also called hFcγRIIIA (V176)-his
Experimental: (§1) After blocking and washing, the serial diluted (5 g/ml˜0.02 μg/ml) FcγRs labeled with His-tag were added and incubated for 1 h. Then anti-His-HRP and TMB were added for detection of FcγR binding at OD450 nm.

[2] = molecular target: T2, mouse FcγRI-his (mouse, UniProt P26151 25-297); assay: ELISA: antibody coated at 1 ug/ml, Mouse FcγRI-his titrated, anti-His-HRP; the concentration axis is that of the receptor
T2 sequence (looked up): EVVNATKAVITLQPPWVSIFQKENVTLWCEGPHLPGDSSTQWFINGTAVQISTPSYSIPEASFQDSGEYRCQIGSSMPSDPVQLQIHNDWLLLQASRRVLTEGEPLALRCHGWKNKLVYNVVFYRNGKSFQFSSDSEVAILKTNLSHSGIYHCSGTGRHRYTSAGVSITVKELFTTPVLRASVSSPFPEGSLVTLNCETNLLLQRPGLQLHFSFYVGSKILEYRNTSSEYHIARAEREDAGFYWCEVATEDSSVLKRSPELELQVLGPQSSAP
Experimental: as §1

[3] = molecular target: T3, mouse FcγRIIB-his (mouse, UniProt P08101 30-207, limits assumed); assay: ELISA: antibody coated at 1 ug/ml, Mouse FcγRIIB-his titrated, anti-His-HRP; the concentration axis is that of the receptor
T3 sequence (looked up): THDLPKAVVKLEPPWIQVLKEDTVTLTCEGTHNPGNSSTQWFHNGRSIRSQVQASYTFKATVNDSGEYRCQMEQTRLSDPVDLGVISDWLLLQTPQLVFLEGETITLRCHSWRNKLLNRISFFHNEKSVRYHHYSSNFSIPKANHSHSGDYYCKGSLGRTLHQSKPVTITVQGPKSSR
Experimental: as §1

[4] = molecular target: T4, FcγRIV-his (Mus musculus (Mouse), UniProt A0A0B4J1G0 21-203); assay: ELISA: antibody coated at 1 ug/ml, Mouse FcγRIV-his titrated, anti-His-HRP; the concentration is that of the receptor
T4 sequence: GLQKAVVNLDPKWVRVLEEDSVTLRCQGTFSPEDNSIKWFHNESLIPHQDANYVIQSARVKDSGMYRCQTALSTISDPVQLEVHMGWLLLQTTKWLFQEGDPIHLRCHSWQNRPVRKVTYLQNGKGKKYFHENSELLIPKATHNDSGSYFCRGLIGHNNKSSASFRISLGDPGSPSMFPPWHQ
Experimental: as §1

[5] = molecular target: T5, Human FcRn (FCGRT&B2M) Protein (human, UniProt P55899 24-297; P61769 21-119); assay: ELISA at pH 6.0: antibody immobilised, biotinylated FcRn titrated, Streptavidin-HRP; the concentration axis is that of FcRn
T5 construct: also called huFcRn-biotin
Experimental: FcRn binding was evaluated by an ELISA method. […] Biotinylated FcRn was serial diluted in a pH6.0 dilution buffer (1 μg/ml˜0.0002 μg/ml) and then added for 1 h incubation. Next, Streptavidin-HRP and TMB were added for detection of binding at OD450 nm.

[6] = molecular target: T6, Cyno FcγRIII-his (cyno, UniProt Q8SPW2 17-208); assay: ELISA: antibody coated, Cyno FcγRIII-his titrated, anti-His-HRP; the concentration axis is that of the receptor
T6 construct: also called cyno FcγRs
Experimental: as §1

[7] = molecular target: T1, human FcγRIIIa-V176; assay: cell-based or functional assay
[8] = molecular target: T7, human FcγRI (human, UniProt P12314 16-288); assay: ELISA: antibody coated at 1 ug/ml, hFcγRI-his titrated, anti-His-HRP; the concentration axis is that of the receptor
T7 construct: also called hFcγRI-his
Experimental: as §1

[9] = molecular target: T8, human FcγRIIIa-F176 (human, UniProt P08637 17-208); assay: ELISA, antibody coated, His-tagged FcγR in solution
T8 construct: His-tagged (ELISA); also called hFcγRIIIA (F176)-his
Experimental: as §1

[10] = molecular target: T1, human FcγRIIIa-V176; assay: as above
Experimental: as §1

[11] = molecular target: human C1q (human, UniProt P02745 23-245; P02746 28-253; P02747 29-245); assay: ELISA: antibody immobilised, human C1q titrated, anti-C1q-HRP; the concentration axis is that of C1q
Experimental: C1q binding assay was taken following method. Two antibodies were immobilized on the plate. […] Then anti-C1q-HRP and TMB were added for detection at OD450 nm.

[12] = molecular target: T9, human CLDN18.2 (human); assay: flow cytometry on HEK293-CLDN18.2 cells; unit taken from the concentration axis
T9 construct: also called hCLDN18.2; Claudin-18 splice variant 2
Experimental: (§2) Log-phase HEK293-CLDN18.2 and NUGC4 cells were re-suspended in PBS. After 3× cell wash by using FACS washing buffer (PBS+2% FBS), 100 μl/well diluted hybridoma Abs with a range from 400 nM to 0.002 nM were added into each well for incubation at 4° C. for 30 min. Again, cells were washed 3 times by using FACS washing buffer and then incubated with 100 μl/well goat anti-mIgG-FITC (1:400 dilution) at 4° C. for another 30 min. After a final 3× wash using FACS washing buffer, cells were analyzed by flow Cytometry.

[13] = molecular target: T9, human CLDN18.2; assay: FACS, MKN45-CLDN18.2-high cells
Experimental: as §2

[14] = molecular target: human CLDN18.2-mRFP N37D (human); assay: FACS, transfected HEK293, 10 µg/ml antibody;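 further: antibody binding read by flow cytometry with a FITC-labelled anti-human IgG secondary, gated on RFP-positive cells, each mutant signal expressed against wild-type CLDN18.2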
Experimental: (§3) The transfected HEK293-CLDN18.2 or HEK293-CLDN18.1 cell were resuspended in PBS with 2% BSA at density of 10\hat{ }5/well, 100 μl/well. […] Next, cells were washed 3 times by FACS washing buffer and incubated with 100 μl/well goat anti-hIgG (H+L)-FITC (1:200 dilution) at 4° C. for another 30 min. Finally, cells were washed 3 times by FACS washing buffer and analyzed by Flow Cytometry. To analyze binding to CLDN18.2 transfected cells, the RFP positive cells were used for control gating.

[15] = molecular target: human CLDN18.2-mRFP E56Q (human); assay: FACS, transfected HEK293, 10 µg/ml antibody;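 further: antibody binding read by flow cytometry with a FITC-labelled anti-human IgG secondary, gated on RFP-positive cells, each mutant signal expressed against wild-type CLDN18.2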
Experimental: as §3

[16] = molecular target: human CLDN18.2-mRFP Q29M (human); assay: FACS, transfected HEK293, 10 µg/ml antibody;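 further: antibody binding read by flow cytometry with a FITC-labelled anti-human IgG secondary, gated on RFP-positive cells, each mutant signal expressed against wild-type CLDN18.2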
Experimental: as §3

[17] = molecular target: human CLDN18.2-mRFP Q47E (human); assay: FACS, transfected HEK293, 10 µg/ml antibody;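 further: antibody binding read by flow cytometry with a FITC-labelled anti-human IgG secondary, gated on RFP-positive cells, each mutant signal expressed against wild-type CLDN18.2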
Experimental: as §3

[18] = molecular target: human CLDN18.2-mRFP L69I (human); assay: FACS, transfected HEK293, 10 µg/ml antibody
Experimental: as §3

[19] = molecular target: human CLDN18.2-mRFP A42S (human); assay: FACS, transfected HEK293, 10 µg/ml antibody
Experimental: as §3

[20] = molecular target: human CLDN18.2-mRFP G65P (human); assay: FACS, transfected HEK293, 10 µg/ml antibody
Experimental: as §3

[21] = molecular target: human CLDN18.2-mRFP N45Q (human); assay: FACS, transfected HEK293, 10 µg/ml antibody
Experimental: as §3

[22] = molecular target: T10, human CLDN18.2-mRFP1, wild-type (human); assay: FACS, transfected HEK293, 10 µg/ml antibody
T10 construct: human CLDN18.2 (amino acid 1-261) fused to mRFP1 (amino acid 1-225), transiently expressed in HEK293 cells; also called wild-type human CLDN18.2-mRFP
Experimental: as §3

[23] = molecular target: T11, human CLDN18.1 (human, UniProt P56856 1-261); assay: flow cytometry on HEK293-CLDN18.1 cells, one antibody concentration
T11 construct: on HEK293-CLDN18.1 cells; also called Claudin-18 splice variant 1; NP_057453.1

[24] = molecular target: T9, human CLDN18.2; assay: flow cytometry on MKN45-CLDN18.2-high cells; unit taken from the concentration axis
Experimental: as §2

[25] = molecular target: T9, human CLDN18.2; assay: FACS, HEK293-CLDN18.2 cells
[26] = molecular target: T9, human CLDN18.2; assay: FACS, NUGC4 cells
[27] = molecular target: T9, human CLDN18.2; assay: cell-based or functional assay
[28] = molecular target: T9, human CLDN18.2; assay: flow cytometry on MIA PaCa-2-CLDN18.2 cells (y axis printed as Luminescence); unit taken from the concentration axis
[29] = molecular target: T9, human CLDN18.2; assay: flow cytometry on BxPC-3-CLDN18.2 cells (y axis printed as Luminescence); unit taken from the concentration axis
[30] = molecular target: T9, human CLDN18.2; assay: flow cytometry on KATOIII cells; unit taken from the concentration axis; the fitted value lies far above the highest concentration tested (about 30 ug/ml); the curve rises only from about 2 ug/ml on, to Mean FITC-A about 43000
[31] = molecular target: T9, human CLDN18.2; assay: flow cytometry on MKN45-CLDN18.2-medium cells; unit taken from the concentration axis; the fitted value lies far above the highest concentration tested (about 60 ug/ml); the curve lies on the isotype control up to about 7 ug/ml and reaches Mean FITC about 4200 at about 60 ug/ml
Experimental: as §2

[32] = molecular target: T9, human CLDN18.2; assay: KinExA, NUGC4 cells; binds: Kd on NUGC4 gastric cells (endogenous CLDN18.2), affinity assay, not FACS EC50
[33] = molecular target: T9, human CLDN18.2; assay: FACS, HEK293-CLDN18.2 cells; binds: FACS on overexpressing HEK293-CLDN18.2 cells
[34] = molecular target: T9, human CLDN18.2; assay: flow cytometry on SNU-601 cells; unit taken from the concentration axis; the fitted value lies far above the highest concentration tested (about 30 ug/ml); the curve rises only from about 2 ug/ml on, to Mean FITC-A about 35000

T1 sequence (P08637 17-208 F176V limits assumed): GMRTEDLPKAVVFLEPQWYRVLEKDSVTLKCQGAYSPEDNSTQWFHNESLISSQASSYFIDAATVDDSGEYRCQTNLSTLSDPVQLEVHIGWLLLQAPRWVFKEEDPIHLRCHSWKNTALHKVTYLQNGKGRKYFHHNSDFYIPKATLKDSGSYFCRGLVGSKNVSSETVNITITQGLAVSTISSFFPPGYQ
T11 sequence (P56856 whole entry, canonical isoform): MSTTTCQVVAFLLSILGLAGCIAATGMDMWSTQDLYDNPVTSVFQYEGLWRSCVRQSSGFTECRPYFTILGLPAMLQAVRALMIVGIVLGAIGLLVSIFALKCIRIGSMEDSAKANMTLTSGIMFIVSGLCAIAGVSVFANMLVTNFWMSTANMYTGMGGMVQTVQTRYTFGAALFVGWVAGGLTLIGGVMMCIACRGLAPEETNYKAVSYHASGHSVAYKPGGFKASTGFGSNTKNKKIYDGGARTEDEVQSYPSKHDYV
T8 sequence (P08637 17-208 limits assumed): as the sequence (P08637 17-208 F176V limits assumed) above, with V160F counted along it
Chain of human CLDN18.2-mRFP L69I (human) (chain, as listed by the source L69I L69I limits assumed): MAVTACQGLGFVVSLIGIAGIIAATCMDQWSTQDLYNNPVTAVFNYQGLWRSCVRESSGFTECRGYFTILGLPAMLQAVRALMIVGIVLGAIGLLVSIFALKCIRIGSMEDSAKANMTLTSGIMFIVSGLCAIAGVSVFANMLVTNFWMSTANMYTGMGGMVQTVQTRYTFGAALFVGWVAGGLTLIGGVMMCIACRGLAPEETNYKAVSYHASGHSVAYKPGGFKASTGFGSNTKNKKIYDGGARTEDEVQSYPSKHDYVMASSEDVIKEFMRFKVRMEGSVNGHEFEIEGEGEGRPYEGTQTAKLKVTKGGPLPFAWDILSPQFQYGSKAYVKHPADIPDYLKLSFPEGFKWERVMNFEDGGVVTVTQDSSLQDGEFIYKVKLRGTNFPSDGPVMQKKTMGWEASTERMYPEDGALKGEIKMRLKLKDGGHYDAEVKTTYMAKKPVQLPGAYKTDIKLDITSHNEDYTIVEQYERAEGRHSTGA
Chain of human CLDN18.2-mRFP G65P (human) (chain, as listed by the source G65P G65P limits assumed): as the sequence (chain, as listed by the source L69I L69I limits assumed) above, with G65P, I69L counted along it
T5 sequence (P55899 24-297 limits assumed, chain 1 of 2): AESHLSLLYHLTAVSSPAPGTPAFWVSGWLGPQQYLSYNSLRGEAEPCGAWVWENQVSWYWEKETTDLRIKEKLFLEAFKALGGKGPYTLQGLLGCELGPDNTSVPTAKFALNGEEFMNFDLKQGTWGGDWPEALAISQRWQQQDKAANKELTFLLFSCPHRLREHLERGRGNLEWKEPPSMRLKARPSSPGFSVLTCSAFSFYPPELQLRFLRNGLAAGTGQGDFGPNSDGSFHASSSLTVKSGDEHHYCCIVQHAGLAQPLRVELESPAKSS
T5 sequence (P61769 21-119 limits assumed, chain 2 of 2): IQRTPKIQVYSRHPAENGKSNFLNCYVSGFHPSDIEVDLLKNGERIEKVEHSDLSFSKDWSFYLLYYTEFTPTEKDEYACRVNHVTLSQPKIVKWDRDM
Chain of human CLDN18.2-mRFP Q47E (human) (chain, as listed by the source Q47E Q47E limits assumed): as the sequence (chain, as listed by the source L69I L69I limits assumed) above, with Q47E, I69L counted along it
Chain of human CLDN18.2-mRFP E56Q (human) (chain, as listed by the source E56Q E56Q limits assumed): as the sequence (chain, as listed by the source L69I L69I limits assumed) above, with E56Q, I69L counted along it
Chain of human C1q (P02745 23-245, chain 1 of 3): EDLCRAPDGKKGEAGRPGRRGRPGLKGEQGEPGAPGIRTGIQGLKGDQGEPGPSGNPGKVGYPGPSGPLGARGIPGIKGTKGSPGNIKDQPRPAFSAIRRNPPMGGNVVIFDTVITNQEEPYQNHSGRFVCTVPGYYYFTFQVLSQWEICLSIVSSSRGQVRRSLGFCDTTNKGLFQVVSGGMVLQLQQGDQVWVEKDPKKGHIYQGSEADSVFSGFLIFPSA
Chain of human C1q (P02746 28-253, chain 2 of 3): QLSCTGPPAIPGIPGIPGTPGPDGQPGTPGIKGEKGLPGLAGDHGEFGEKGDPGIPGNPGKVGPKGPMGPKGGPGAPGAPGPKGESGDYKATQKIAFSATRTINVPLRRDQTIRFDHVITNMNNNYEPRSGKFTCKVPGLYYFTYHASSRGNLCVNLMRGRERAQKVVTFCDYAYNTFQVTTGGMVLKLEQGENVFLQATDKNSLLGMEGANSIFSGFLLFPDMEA
Chain of human C1q (P02747 29-245, chain 3 of 3): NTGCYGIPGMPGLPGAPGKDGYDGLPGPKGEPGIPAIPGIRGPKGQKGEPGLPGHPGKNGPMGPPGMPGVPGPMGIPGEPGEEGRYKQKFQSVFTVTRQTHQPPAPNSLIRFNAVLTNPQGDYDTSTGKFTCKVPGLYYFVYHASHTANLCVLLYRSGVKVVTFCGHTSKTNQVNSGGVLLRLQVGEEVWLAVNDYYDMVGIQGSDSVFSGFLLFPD
Chain of human CLDN18.2-mRFP Q29M (human) (chain, as listed by the source Q29M Q29M limits assumed): as the sequence (chain, as listed by the source L69I L69I limits assumed) above, with Q29M, I69L counted along it
Chain of human CLDN18.2-mRFP A42S (human) (chain, as listed by the source A42S A42S limits assumed): as the sequence (chain, as listed by the source L69I L69I limits assumed) above, with A42S, I69L counted along it
T7 sequence (P12314 16-288 limits assumed): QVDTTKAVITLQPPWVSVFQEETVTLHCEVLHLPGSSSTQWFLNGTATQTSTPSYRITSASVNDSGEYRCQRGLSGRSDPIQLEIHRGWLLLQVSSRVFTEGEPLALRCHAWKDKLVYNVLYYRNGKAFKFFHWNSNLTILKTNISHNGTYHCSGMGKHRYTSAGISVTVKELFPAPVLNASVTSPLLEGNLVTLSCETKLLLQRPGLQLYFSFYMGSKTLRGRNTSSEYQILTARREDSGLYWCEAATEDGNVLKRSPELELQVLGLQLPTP
T6 sequence (Q8SPW2 17-208 limits assumed): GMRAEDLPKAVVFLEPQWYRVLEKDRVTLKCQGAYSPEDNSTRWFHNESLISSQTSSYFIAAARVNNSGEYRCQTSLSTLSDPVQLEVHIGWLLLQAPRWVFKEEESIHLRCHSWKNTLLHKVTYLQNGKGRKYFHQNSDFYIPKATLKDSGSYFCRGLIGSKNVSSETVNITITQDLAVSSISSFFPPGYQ
Chain of human CLDN18.2-mRFP N45Q (human) (chain, as listed by the source N45Q N45Q limits assumed): as the sequence (chain, as listed by the source L69I L69I limits assumed) above, with N45Q, I69L counted along it
Chain of human CLDN18.2-mRFP N37D (human) (chain, as listed by the source N37D N37D limits assumed): as the sequence (chain, as listed by the source L69I L69I limits assumed) above, with N37D, I69L counted along it

B1: 18B10-HaLa-L235V/F243L/R292P/Y300L/P396L (antibody, human IgG1, kappa)
heavy: QVQLVQSGAEVKKPGASVKVSCKASGYTFTGYNMNWVRQAPGQGLEWMGNIDPYYGGTSYNQKFKGRVTMTIDKSTSTVYMELSSLRSEDTAVYYCARMYHGNAFDYWGQGTTVTVSSASTKGPSVFPLAPSSKSTSGGTAALGCLVKDYFPEPVTVSWNSGALTSGVHTFPAVLQSSGLYSLSSVVTVPSSSLGTQTYICNVNHKPSNTKVDKKVEPKSCDKTHTCPPCPAPELVGGPSVFLLPPKPKDTLMISRTPEVTCVVVDVSHEDPEVKFNWYVDGVEVHNAKTKPPEEQYNSTLRVVSVLTVLHQDWLNGKEYKCKVSNKALPAPIEKTISKAKGQPREPQVYTLPPSRDELTKNQVSLTCLVKGFYPSDIAVEWESNGQPENNYKTTPLVLDSDGSFFLYSKLTVDKSRWQQGNVFSCSVMHEALHNHYTQKSLSLSPGK
light: not shown
notes: Fc variant of 18B10-HaLa; also called 18B10-HaLa-VLPYLL; copies: 2 + 2
[1]
  EC50 (read off the curve): ~0.2 µg/mL
[2]
  binding result: binds
[3]
  binding result: binds
[4]
  EC50 (read off the curve): ~0.06 µg/mL
[5]
  binding result: binds
[6]
  binding result: binds
[7]
  ADCC reporter EC50, NUGC4 targets, Jurkat-NFAT-luc-FcγRIIIA-V176 effectors: 0.0097 µg/mL
[8]
  binding result: binds
[9]
  fold increased binding vs 18B10-HaLa wild-type: 10 fold
[10]
  fold increased binding vs 18B10-HaLa wild-type: 10 fold
[11]
  binding result: binds

B2: 18B10-C (antibody, human IgG1, V domains shown)
VH: EFQLQQSGPELEKPGASVRISCKTSGYSFTGYNMNWVKQSNGESLEWIGNIDPYYGGTSYNQKFKGKATLTVDKSSSTAYMQLKSLTSEDSAVYYCARMYHGNAFDYWGQGTTLTVSS
VL: DIVMTQSPSSLTVTAGEKVTMSCKSSQSLLNSGNLKNYLTWYQQKPGQPPKLLIYWASTRKSGVPDRFTGSGSGTDFTLTLSSVQAEDLAVYYCQNDYSYPLTFGAGTKLELK
notes: also called chimeric 18B10
[12]
  EC50: 1.35 µg/mL
[13]
  fold increase in binding potency vs IMAB362: ~2 fold
[14]
  binding percentage vs wild-type CLDN18.2: 106%
[15]
  binding percentage vs wild-type CLDN18.2: 6.57%
[16]
  binding percentage vs wild-type CLDN18.2: 83.5%
[17]
  binding percentage vs wild-type CLDN18.2: 109%
[18]
  binding percentage vs wild-type CLDN18.2: 112%
[19]
  binding percentage vs wild-type CLDN18.2: 69.2%
[20]
  binding percentage vs wild-type CLDN18.2: 118%
[21]
  binding percentage vs wild-type CLDN18.2: 92%
[22]
  binding percentage vs wild-type CLDN18.2: 100%
[23]
  binding result: no binding (tested: 10 ug/ml)
[24]
  EC50: 1.87 µg/mL
[25]
  EC50: 0.96 µg/mL
[26]
  EC50: 7.8 µg/mL
[27]
  ADCC reporter assay (Jurkat-NFAT-luc-FcγRIIIA-V176), MKN45-CLDN18.2-medium target cells: 50 fold
  ADCC reporter assay, NUGC4 target cells: > 40 fold

B3: IMAB362 (antibody, human IgG1, V domains shown)
VH: QVQLQQPGAELVRPGASVKLSCKASGYTFTSYWINWVKQRPGQGLEWIGNIYPSDSYTNYNQKFKDKATLTVDKSSSTAYMQLSSPTSEDSAVYYCTRSWRGNSFDYWGQGTTLTVSS
VL: DIVMTQSPSSLTVTAGEKVTMSCKSSQSLLNSGNQKNYLTWYQQKPGQPPKLLIYWASTRESGVPDRFTGSGSGTDFTLTISSVQAEDLAVYYCQNDYSYPFTFGSGTKLEIK
notes: chimeric IgG1 benchmark antibody, expressed according to US2009169547A1; also called IMAB362-analog; IMB362
[28]
  EC50: 0.66 µg/mL
[29]
  EC50: 2.47 µg/mL
[30]
  EC50: 18000 µg/mL
[22]
  binding percentage vs wild-type CLDN18.2: 100%
[24]
  EC50: 4.05 µg/mL
[31]
  EC50: ~16800 µg/mL
[32]
  Kd: 2.58 nM
[33]
  EC50: 0.42 µg/mL
[27]
  ADCC EC50 (PBMC effectors, PI staining), NUGC4 cells: 0.54 µg/mL
[34]
  EC50: 15300 µg/mL
